The term Km denotes the concentration of substrate that gives half-maximal velocity.

These results are taken from patent publication US7635557B2 (MND Diagnostic Ltd., priority 2003, dated 2009).

Experiment [1] concerns the target T1, Rhinovirus HRV14 3C protease (Human rhinovirus 14, UniProt P03303).
T1 construct: the human rhinovirus 14 3C proteinase, cloned and expressed in E. coli; host or cells: E. coli
The settings on record: cited from earlier work.

Experiment [2] concerns the target T2, Human Rhinovirus serotype 1A 3C Protease (Human rhinovirus 1A, UniProt P23008).
T2 construct: is used to clone the 3C Protease into the expression vector pET16-b; made in house; host or cells: E. coli BL21-DE3-pLys-S
T2 sequence (P23008 1515-1697 limits assumed): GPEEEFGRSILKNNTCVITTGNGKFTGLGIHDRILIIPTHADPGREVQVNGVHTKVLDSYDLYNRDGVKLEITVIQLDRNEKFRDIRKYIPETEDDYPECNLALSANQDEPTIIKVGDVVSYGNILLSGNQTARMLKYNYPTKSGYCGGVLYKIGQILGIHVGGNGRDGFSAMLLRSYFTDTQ
It is filed as biochemical.

The target of experiment [3] is T1, Rhinovirus HRV14 3C protease. In kind it is biochemical.

Ends that are not written are not given here.

T1 sequence (P03303 1538-1719): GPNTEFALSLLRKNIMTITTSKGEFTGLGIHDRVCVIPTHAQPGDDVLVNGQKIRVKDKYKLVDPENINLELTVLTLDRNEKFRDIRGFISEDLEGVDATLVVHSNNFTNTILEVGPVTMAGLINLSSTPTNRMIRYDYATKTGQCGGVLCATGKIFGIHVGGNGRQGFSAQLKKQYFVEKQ

As for DSLETLFQGPVYK [I], in experiment [1], the Hydrolysis rate is on record as 355 and the “Relative Hydrolysis rate” value is listed as 1.00.

Take EAIAEEQGLSDYIT [II]: in experiment [1], the Hydrolysis rate is given as 8 and the “Relative Hydrolysis rate” value is on record as 0.024.

Take KLFAQTQGPYSGNP [VI]: in experiment [1], the Hydrolysis rate is on record as 147 and the “Relative Hydrolysis rate” value is on record as 0.44.

On to KQYFVEKQGQVIAR [VIII], for which, in experiment [1], the Hydrolysis rate is recorded as 1 and the “Relative Hydrolysis rate” value is recorded as 0.003.

With “MOC-Arg-Ala-Glu-Leu-Gln-Gly-Pro-Tyr-Asp-Lys-DNP-NH2 (RAELQGPYDK; not fully specified; MOC fluorochrome, DNP quencher, C-terminal amide; Human rhinovirus 1A; MOC; fluorochrome) [dimodified decapeptide substrate (7-methoxy coumarin-4-acetic acid fluorochrome and dinitrophenol quencher)]”, in experiment [2], the Km came to 16.8 µM.

For the substance RPVVVQGPN, the “best substrate chosen based on the reaction rates” value in experiment [3] is given as “best peptide”.

Turning to SQTVALTEGLGDELEEY, in experiment [1], the Hydrolysis rate was 0 and the “Relative Hydrolysis rate” value is 0.0005.

VPYIERQANDGWFRK [III]: in experiment [1], the Hydrolysis rate is listed as 0 and the “Relative Hydrolysis rate” value is given as 0.0005.

On to YRPVVVQGPNTEF [VII], for which, in experiment [1], the Hydrolysis rate is listed as 37 and the “Relative Hydrolysis rate” value was 0.11.
